Numbered stars: 1 amine (or outer) side, 2 acyl side, 3 side chain; on linkers, the order of the positions; unused ones are H or OH. Bridge positions count the residues as written; N and C are the ends. Square brackets hold non-standard residues; d marks the D form. Tyr(Me) = Yme = 4-methoxy-L-phenylalanine (O-methyl-tyrosine), COc1ccc(C[C@H](N[*:1])C(=O)[*:2])cc1; Trp(1-Me) = Cn1cc(C[C@H](N)C(=O)O)c2ccccc21; dAla(4-thiazolyl) = N[C@H](Cc1cscn1)C(=O)O; 1Nal = N[C@@H](Cc1cccc2ccccc12)C(=O)O; 2Nal = N[C@@H](Cc1ccc2ccccc2c1)C(=O)O; Cit = NC(=O)NCCC[C@H](N)C(=O)O; αMeL = CC(C)C[C@](C)(N)C(=O)O; Orn = NCCC[C@H](N)C(=O)O; Aib = CC(C)(N)C(=O)O
B1: peptide compound SEQ ID NO: 13 (peptide)
peptide: Ac-[dD]NTWQR[Tyr(Me)][2Nal][Aib][Orn]NN-NH2
modifications: lactam 1-10
SMILES: COc1ccc(C[C@@H]2NC(=O)[C@H](CCCNC(=N)N)NC(=O)[C@H](CCC(N)=O)NC(=O)[C@H](Cc3c[nH]c4ccccc34)NC(=O)[C@H]([C@@H](C)O)NC(=O)[C@H](CC(N)=O)NC(=O)[C@H](NC(C)=O)CC(=O)NCCC[C@@H](C(=O)N[C@@H](CC(N)=O)C(=O)N[C@@H](CC(N)=O)C(N)=O)NC(=O)C(C)(C)NC(=O)[C@H](Cc3ccc4ccccc4c3)NC2=O)cc1
B2: peptide compound SEQ ID NO: 15 (peptide)
peptide: Ac-[dK]NTWQR[Tyr(Me)][2Nal][Aib]DNN-NH2
modifications: lactam 1-10
SMILES: COc1ccc(C[C@@H]2NC(=O)[C@H](CCCNC(=N)N)NC(=O)[C@H](CCC(N)=O)NC(=O)[C@H](Cc3c[nH]c4ccccc34)NC(=O)[C@H]([C@@H](C)O)NC(=O)[C@H](CC(N)=O)NC(=O)[C@H](NC(C)=O)CCCCNC(=O)C[C@@H](C(=O)N[C@@H](CC(N)=O)C(=O)N[C@@H](CC(N)=O)C(N)=O)NC(=O)C(C)(C)NC(=O)[C@H](Cc3ccc4ccccc4c3)NC2=O)cc1
B3: peptide compound SEQ ID NO: 10 (peptide)
peptide: Ac-[dK]NT[Trp(1-Me)]QR[Tyr(Me)][2Nal]K(Ac)DNN-NH2
modifications: lactam 1-10
SMILES: COc1ccc(C[C@@H]2NC(=O)[C@H](CCCNC(=N)N)NC(=O)[C@H](CCC(N)=O)NC(=O)[C@H](Cc3cn(C)c4ccccc34)NC(=O)[C@H]([C@@H](C)O)NC(=O)[C@H](CC(N)=O)NC(=O)[C@H](NC(C)=O)CCCCNC(=O)C[C@@H](C(=O)N[C@@H](CC(N)=O)C(=O)N[C@@H](CC(N)=O)C(N)=O)NC(=O)[C@H](CCCCNC(C)=O)NC(=O)[C@H](Cc3ccc4ccccc4c3)NC2=O)cc1
B4: peptide compound SEQ ID NO: 20 (peptide)
peptide: Ac-[dK]NTWQV[Tyr(Me)][1Nal][Aib]DNN-NH2
modifications: lactam 1-10
SMILES: COc1ccc(C[C@@H]2NC(=O)[C@H](C(C)C)NC(=O)[C@H](CCC(N)=O)NC(=O)[C@H](Cc3c[nH]c4ccccc34)NC(=O)[C@H]([C@@H](C)O)NC(=O)[C@H](CC(N)=O)NC(=O)[C@H](NC(C)=O)CCCCNC(=O)C[C@@H](C(=O)N[C@@H](CC(N)=O)C(=O)N[C@@H](CC(N)=O)C(N)=O)NC(=O)C(C)(C)NC(=O)[C@H](Cc3cccc4ccccc34)NC2=O)cc1
B5: peptide compound SEQ ID NO: 12 (peptide)
peptide: Ac-[dD]NTWQR[Tyr(Me)][2Nal][Aib]KNN-NH2
modifications: lactam 1-10
SMILES: COc1ccc(C[C@@H]2NC(=O)[C@H](CCCNC(=N)N)NC(=O)[C@H](CCC(N)=O)NC(=O)[C@H](Cc3c[nH]c4ccccc34)NC(=O)[C@H]([C@@H](C)O)NC(=O)[C@H](CC(N)=O)NC(=O)[C@H](NC(C)=O)CC(=O)NCCCC[C@@H](C(=O)N[C@@H](CC(N)=O)C(=O)N[C@@H](CC(N)=O)C(N)=O)NC(=O)C(C)(C)NC(=O)[C@H](Cc3ccc4ccccc4c3)NC2=O)cc1
B6: peptide compound SEQ ID NO: 25 (peptide)
peptide: Ac-[dK]NT[Trp(1-Me)]QR[Tyr(Me)][2Nal][dAla(4-thiazolyl)]DNN-NH2
modifications: lactam 1-10
SMILES: COc1ccc(C[C@@H]2NC(=O)[C@H](CCCNC(=N)N)NC(=O)[C@H](CCC(N)=O)NC(=O)[C@H](Cc3cn(C)c4ccccc34)NC(=O)[C@H]([C@@H](C)O)NC(=O)[C@H](CC(N)=O)NC(=O)[C@H](NC(C)=O)CCCCNC(=O)C[C@@H](C(=O)N[C@@H](CC(N)=O)C(=O)N[C@@H](CC(N)=O)C(N)=O)NC(=O)[C@@H](Cc3cscn3)NC(=O)[C@H](Cc3ccc4ccccc4c3)NC2=O)cc1
B7: peptide compound SEQ ID NO: 23 (peptide)
peptide: Ac-[dK]NT[Trp(1-Me)]QR[Tyr(Me)][1Nal][αMeL]DNN-NH2
modifications: lactam 1-10
SMILES: COc1ccc(C[C@@H]2NC(=O)[C@H](CCCNC(=N)N)NC(=O)[C@H](CCC(N)=O)NC(=O)[C@H](Cc3cn(C)c4ccccc34)NC(=O)[C@H]([C@@H](C)O)NC(=O)[C@H](CC(N)=O)NC(=O)[C@H](NC(C)=O)CCCCNC(=O)C[C@@H](C(=O)N[C@@H](CC(N)=O)C(=O)N[C@@H](CC(N)=O)C(N)=O)NC(=O)[C@](C)(CC(C)C)NC(=O)[C@H](Cc3cccc4ccccc34)NC2=O)cc1
B8: peptide compound SEQ ID NO: 29 (peptide)
peptide: Ac-[dK]NTWQR[Tyr(Me)][2Nal][Cit]DNN-NH2
modifications: lactam 1-10
SMILES: COc1ccc(C[C@@H]2NC(=O)[C@H](CCCNC(=N)N)NC(=O)[C@H](CCC(N)=O)NC(=O)[C@H](Cc3c[nH]c4ccccc34)NC(=O)[C@H]([C@@H](C)O)NC(=O)[C@H](CC(N)=O)NC(=O)[C@H](NC(C)=O)CCCCNC(=O)C[C@@H](C(=O)N[C@@H](CC(N)=O)C(=O)N[C@@H](CC(N)=O)C(N)=O)NC(=O)[C@H](CCCNC(N)=O)NC(=O)[C@H](Cc3ccc4ccccc4c3)NC2=O)cc1
B9: peptide compound SEQ ID NO: 2 (peptide)
peptide: Ac-[dK]NTWQA[Tyr(Me)][2Nal][Aib]DNN-NH2
modifications: lactam 1-10
SMILES: COc1ccc(C[C@@H]2NC(=O)[C@H](C)NC(=O)[C@H](CCC(N)=O)NC(=O)[C@H](Cc3c[nH]c4ccccc34)NC(=O)[C@H]([C@@H](C)O)NC(=O)[C@H](CC(N)=O)NC(=O)[C@H](NC(C)=O)CCCCNC(=O)C[C@@H](C(=O)N[C@@H](CC(N)=O)C(=O)N[C@@H](CC(N)=O)C(N)=O)NC(=O)C(C)(C)NC(=O)[C@H](Cc3ccc4ccccc4c3)NC2=O)cc1
B10: peptide compound SEQ ID NO: 32 (peptide)
peptide: Ac-[dK]NTWQ[Aib][Tyr(Me)][2Nal][Aib]DNN-NH2
modifications: lactam 1-10
SMILES: COc1ccc(C[C@@H]2NC(=O)C(C)(C)NC(=O)[C@H](CCC(N)=O)NC(=O)[C@H](Cc3c[nH]c4ccccc34)NC(=O)[C@H]([C@@H](C)O)NC(=O)[C@H](CC(N)=O)NC(=O)[C@H](NC(C)=O)CCCCNC(=O)C[C@@H](C(=O)N[C@@H](CC(N)=O)C(=O)N[C@@H](CC(N)=O)C(N)=O)NC(=O)C(C)(C)NC(=O)[C@H](Cc3ccc4ccccc4c3)NC2=O)cc1
B11: peptide compound SEQ ID NO: 3 (peptide)
peptide: Ac-[dK]NTWQR[Tyr(Me)][2Nal][Aib]DNN-NH2
modifications: lactam 1-10
SMILES: COc1ccc(C[C@@H]2NC(=O)[C@H](CCCNC(=N)N)NC(=O)[C@H](CCC(N)=O)NC(=O)[C@H](Cc3c[nH]c4ccccc34)NC(=O)[C@H]([C@@H](C)O)NC(=O)[C@H](CC(N)=O)NC(=O)[C@H](NC(C)=O)CCCCNC(=O)C[C@@H](C(=O)N[C@@H](CC(N)=O)C(=O)N[C@@H](CC(N)=O)C(N)=O)NC(=O)C(C)(C)NC(=O)[C@H](Cc3ccc4ccccc4c3)NC2=O)cc1
B12: peptide compound SEQ ID NO: 21 (peptide)
peptide: Ac-[dK]NTWQ[Aib][Tyr(Me)][1Nal][Aib]DNN-NH2
modifications: lactam 1-10
SMILES: COc1ccc(C[C@@H]2NC(=O)C(C)(C)NC(=O)[C@H](CCC(N)=O)NC(=O)[C@H](Cc3c[nH]c4ccccc34)NC(=O)[C@H]([C@@H](C)O)NC(=O)[C@H](CC(N)=O)NC(=O)[C@H](NC(C)=O)CCCCNC(=O)C[C@@H](C(=O)N[C@@H](CC(N)=O)C(=O)N[C@@H](CC(N)=O)C(N)=O)NC(=O)C(C)(C)NC(=O)[C@H](Cc3cccc4ccccc34)NC2=O)cc1
B13: peptide IL-23 receptor inhibitor SEQ. ID NO. 24 (peptide)
peptide: Ac-[dK]NT[Trp(1-Me)]QR[Tyr(Me)][2Nal][αMeL]DNN-NH2
modifications: lactam 1-10
SMILES: COc1ccc(C[C@@H]2NC(=O)[C@H](CCCNC(=N)N)NC(=O)[C@H](CCC(N)=O)NC(=O)[C@H](Cc3cn(C)c4ccccc34)NC(=O)[C@H]([C@@H](C)O)NC(=O)[C@H](CC(N)=O)NC(=O)[C@H](NC(C)=O)CCCCNC(=O)C[C@@H](C(=O)N[C@@H](CC(N)=O)C(=O)N[C@@H](CC(N)=O)C(N)=O)NC(=O)[C@](C)(CC(C)C)NC(=O)[C@H](Cc3ccc4ccccc4c3)NC2=O)cc1
B14: peptide compound SEQ ID NO: 31 (peptide)
peptide: Ac-[dK]NTWQV[Tyr(Me)][2Nal][Aib]DNN-NH2
modifications: lactam 1-10
SMILES: COc1ccc(C[C@@H]2NC(=O)[C@H](C(C)C)NC(=O)[C@H](CCC(N)=O)NC(=O)[C@H](Cc3c[nH]c4ccccc34)NC(=O)[C@H]([C@@H](C)O)NC(=O)[C@H](CC(N)=O)NC(=O)[C@H](NC(C)=O)CCCCNC(=O)C[C@@H](C(=O)N[C@@H](CC(N)=O)C(=O)N[C@@H](CC(N)=O)C(N)=O)NC(=O)C(C)(C)NC(=O)[C@H](Cc3ccc4ccccc4c3)NC2=O)cc1

Target: T1, IL-23 receptor on the surface of HEK-Blue IL-23 cells (UniProt Q5VWK5 24-629, limits assumed)
T1 sequence (looked up): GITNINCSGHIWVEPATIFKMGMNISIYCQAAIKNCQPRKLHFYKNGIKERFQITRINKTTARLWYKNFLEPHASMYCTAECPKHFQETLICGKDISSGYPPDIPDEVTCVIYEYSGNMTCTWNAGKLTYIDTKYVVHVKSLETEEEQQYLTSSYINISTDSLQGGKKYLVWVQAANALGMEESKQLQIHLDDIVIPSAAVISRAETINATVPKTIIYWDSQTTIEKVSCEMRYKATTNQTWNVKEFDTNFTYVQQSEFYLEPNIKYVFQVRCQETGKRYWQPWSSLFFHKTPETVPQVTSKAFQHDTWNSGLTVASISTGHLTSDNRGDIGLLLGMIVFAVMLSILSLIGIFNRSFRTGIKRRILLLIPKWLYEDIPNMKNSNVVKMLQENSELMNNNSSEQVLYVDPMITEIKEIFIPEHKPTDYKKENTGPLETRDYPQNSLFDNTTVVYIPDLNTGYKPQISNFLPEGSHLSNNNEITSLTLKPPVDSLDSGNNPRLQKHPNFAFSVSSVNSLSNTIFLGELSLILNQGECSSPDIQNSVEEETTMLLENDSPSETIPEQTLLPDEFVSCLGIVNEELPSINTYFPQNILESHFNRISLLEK
Assay: cell-based or functional assay

Going from B1 to B2, the “Inhibition of IL-23 induced pSTAT3 (IC50 nM)” value (from here on “Inhibition”) falls from 1150 nM to 426 nM.

Going from B3 to B4, the “Inhibition” value rises from 1440 nM to 10000 nM.

Going from B5 to B6, the “Inhibition” value falls from 6590 nM to 3830 nM.

First: B7
Second: B8
The “Inhibition” value of the first is lower: 1960 nM for the first, 2720 nM for the second.

Going from B9 to B10, the “Inhibition” value rises from 234 nM to 320 nM.

Going from B11 to B12, the “Inhibition” value rises from 430 nM to 7500 nM.

Going from B13 to B14, the “Inhibition” value falls from 385 nM to 128 nM.
